Measured values from the nanobody polyreactivity screen of Harvey et al. (2022).

Test: yeast display, Sf9 membrane polyspecificity reagent, FACS + sequencing; frameworks hold sequencing errors
How it was run: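 Galactose-induced (36–48 hours) yeast carrying a synthetic nanobody display library were exposed to 10% biotinylated, detergent-solubilized Sf9 membrane reagent at 4 °C for 1 hour. FACS followed streptavidin microbead enrichment, using low and high (top ~1%) gates for expression (anti-HA) and reagent binding (streptavidin). Colony PCR, MiSeq 2 × 250 sequencing and CDR-length filtering followed. Labels for polyreactivity reflect the gate of origin.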

Sequence	polyreactivity (PSR sort gate)
QVQLVESGGGLVQAGGSLRLSCAASGFIFTYYAMGWYRQAPGKERELVAAITVRGGSTYYADSVKGRFTISRDNAKNTVYLQMNSLKPEDTGVYYCNTVHGLWRRYNYWGQGTQVTVSS	high polyreactivity
QVQLVESGGGLVQAGGSLRLSCAASGFIFTYYDMGWYRQAPGKERELVASISWDGGRTYYADSVKGRFTISRDNAKNTVYLQMNSLKPEDTAVYYCNADGSSYWYPVPLDGGDYWGQGTQVTVSS	low polyreactivity
QVQLVESGGGLVQAGGSLRLSCAASGFIFVANAMGWYRQAPGKEREFFAAISSSGGRTYYADSVKGRFTISRDNAKNTVYLQMNSLKPEDTAVYYCAKDRVFSRRGFGYWGQGTQVTVSS	low polyreactivity
QVQLVESGGGLVQAGGSLRLSCAASGFIFVDYDMGWYSQAPGKERELVAAINWSGGSTDYADSVKGRFTISRDNAKNTVYLQMNSLKPEDTAVYYCAAEGQDGRFYWGQGTQVTVSS	low polyreactivity
QVQLVESGGGLVQAGGSLRLSCAASGFIFVHNAMGWYRQAPGKERELVATISRRGGSTYYADSVKGRFTISRDNAKNTVYLQMNILKPEDTAVYYCAARTYGYYLYDYWGQGTQVTVSS	high polyreactivity
QVQLVESGGGLVQAGGSLRLSCAASGFIFVIYAKGWYRQAPGKERELVARISFRSGRTYYADSVKGRFTISRDNAKNTVYLQMNSLKPEDTAVYYCNAVLYGQYKYDYWGQGTQVTVSS	high polyreactivity
QVQLVESGGGLVQAGGSLRLSCAASGFIFVIYAMGWYRQAPGKERELVARISFRSGRTYYADSVKGRFTISRDNAKNTVYLQMNSLKPEDTAVYYCNAVLYGQYKYDYWGQGTQVTVSS	high polyreactivity
QVQLVESGGGLVQAGGSLRLSCAASGFIFVKYAMGWYRQAPGKERELVAAISWSGGTTYYADSVKGRFTISRDNANNTVYLQMNSLKPEDTAVYYCAAEYYTGYFKYDYWGQGTQVTVSS	high polyreactivity
QVQLVESGGGLVQAGGSLRLSCAASGFIFVPYAMGWYRQAPGKERELVAAIDTSGGNTYADSVKGRFTISRDNAKNTVYLQMNSLKPEDTAVYYCAARYQWDWRDYYYWGQGTQVTVSS	low polyreactivity
QVQLVESGGGLVQAGGSLRLSCAASGFIFVPYAMGWYRQAPGKERELVATITWRGDSTYYADSVKGRFTISRDNAKNTVYLQMNSLKPEDTAVYYCAAVGPIRGYSSDEYWGQGTQVTVSS	low polyreactivity
QVQLVESGGGLVQAGGSLRLSCAASGFIFVRNAMGWYRQAPGKERELVAAITGRGGRTYYADSVKGRFTISRDNAKNTVYLQMNSLKPEDTAVYYCAKDSPDDHFGYWGQGTQVTVSS	high polyreactivity
QVQLVESGGGLVQAGGSLRLSCAASGFIFVRYAMGWYRLAPGKEREFVAAISGGAGSSYYADSVKGRFTISRDNAKNTVYLQMNSLKPEDTAVYYCNRVRSLRYGYWGQGTQVTVSS	high polyreactivity
QVQLVESGGGLVQAGGSLRLSCAASGFIFVSNAMGWYRQAPGKERELVATITNGDRTYYADSVKGRFPISRDNAKNTVYLQMNSLKPEDTAVYYCNADFRAREVFLFDSWGQGTQVTVSS	low polyreactivity
QVQLVESGGGLVQAGGSLRLSCAASGFIFVSYSLGWYRQAPGKERELVAAIDRIGGITYYADSVKGRFTISRDNSKNTVYLQMNSLKPEDTAVYYCAAAASYATVRVGREYYWGQGTHVTVSS	low polyreactivity
QVQLVESGGGLVQAGGSLRLSCAASGFIFVTYAMGWYRQAPGKERELVAAITNSGGTTYYADSVKGRFTISRDNAKNTVYLQMNSLKPEDTAVYYCNKPYGAETAHREFDYWGQGTHVTVSS	low polyreactivity
QVQLVESGGGLVQAGGSLRLSCAASGFIFVTYAMGWYRQAPGKERELVAAITNSGGTTYYADSVKGRFTISRDNAKNTVYLQMNSLKPEDTAVYYCNKPYGAETAHREFDYWGQGTQLTVSS	low polyreactivity
QVQLVESGGGLVQAGGSLRLSCAASGFIFVVYAMGWYRQAPGQERELVAAITYSGGSTYYADSVKGRFTISRDNAKNTVYLQMNSLKPEDTAVYYCAAPEHDREFDYWGQGTQVTVSS	low polyreactivity
QVQLVESGGGLVQAGGSLRLSCAASGFIFVVYDMGWYRQAPGKERELVAGIDTSGADTYYADSVKGRFTISRDNAKNTVYLQMNRLKPEDPAVYYCAAETITDDYYEYDYWGQGTQVTVSS	low polyreactivity
QVQLVESGGGLVQAGGSLRLSCAASGFIFVYNDMGWYRQAPGKERELVASISNGDNTNYADSVKGRFTISRDNAKNTVYLQMNSLKPEDTAVYYCAARGTIYVLGVPARPVPDGDYWGQGTQVTVSS	low polyreactivity
QVQLVESGGGLVQAGGSLRLSCAASGFIFVYYAMGWYRQAPGKERELVAAISKRGGNTYYADSVKGRFTISRDNAKNTVYLQMNSLKPEDTAVYYCAADGPGHYYAELEYDYWGQGTQVTVSS	high polyreactivity
QVQLVESGGGLVQAGGSLRLSCAASGFIFVYYAMGWYRQAPGKERELVAAITSDVNTYYADSVKGRFTISRDNAKNTVYLQMNSLKPEDTAVYYCNADADDYRDYQDYDYWGQGTQVTVSS	low polyreactivity
QVQLVESGGGLVQAGGSLRLSCAASGFIFVYYARGWYRQAPGKEMELVAAISRGGSTYYADSVKGRFTISRDNAKNTVYLQMNSLKPEDTAFYYCNKVLPYGREYGYWGQGTQVTVSS	high polyreactivity

Sequence	polyreactivity (PSR sort gate)
QVQLVESGGGLVQAGGSLRLSCAASGFIFWEYAMGWYRQAPGKERELVAAISTSGGSTYYADSVKGRFTISRDNAKNTVYLQMISLKPEDTAVYYCAVDGWDDTYFRQDMDYWGQGTQVTVSS	low polyreactivity
QVQLVESGGGLVQAGGSLRLSCAASGFIFWFNDMGWYRQAPGKERELVATISWSDTSTYYADSVKGRFTISRDNAKNTVYLQMTSLKPEDTAVYYCATDGRETCLPEYYWGQGTQVTVSS	low polyreactivity
QVQLVESGGGLVQAGGSLRLSCAASGFIFWFYAMGWYRQAPGKEREFVATISRGGSKNYADSVKGRFTISRDNAKNTVYFKINSLKAEDTEVYYCAAARSSYWKTIRAFTMDYWGQGTQVTVSS	high polyreactivity
QVQLVESGGGLVQAGGSLRLSCAASGFIFWLYAMGWYIQAPGKERELVASINWSGGDTYYADSVKGRFTISRDNAKNTFYLQMNSLKPEDTAVYYCTAKVLDSKSSFDYWGKGTQVTVSS	low polyreactivity
QVQLVESGGGLVQAGGSLRLSCAASGFIFWLYAMGWYRQAPGKERELVATITYSDGSTYYADSVKGRFTISRDNAKNTVYLQMNSLKPEDTAVYYCAAEVYYGYDYWGQGTQVTVSS	low polyreactivity
QVQLVESGGGLVQAGGSLRLSCAASGFIFWPYAMGWYRQAPGKESELVAAITTGGSTNYADSVKGRFTISRDNAKNTVYLQMNSLKPEDTAVYYCAKGYYFGYYEFDYWGQGTQVTVSS	high polyreactivity
QVQLVESGGGLVQAGGSLRLSCAASGFIFWPYVMGWYRQEPGTDRELVAAISLGDGSTYYADSVKGRFRLSRDHAKNTVYLQMNSLKPEDTAVYYCAADVTVAWYPVYPGFYYWGQGTQVTVSS	low polyreactivity
QVQLVESGGGLVQAGGSLRLSCAASGFIFWSYAMGWYRQAPGKERELVAAIDLTGGSTYYADSVKGRFTISRDNAKNTVYLQMNSLKPEDTAVYYCNADGDSYAFTNSDSGFDYWGQGTQVTVSS	low polyreactivity
QVQLVESGGGLVQAGGSLRLSCAASGFIFWSYAMGWYRQERGNEREWVAAISWSGGRTYYADSVKGRFTISRDNAKNTVYLQMNSLKPEDTAVYYCAAVKRDSSQYPALDYWGQGTQVTVSS	high polyreactivity
QVQLVESGGGLVQAGGSLRLSCAASGFIFWWYAMGWYRQAPGKERELVATITASVGSTNYADSVKGRFTISRDNAKNTVYLQMNSLKPEDTAVYYCATDIIGAIRDWDHTRMDYWGQGTQVTVSS	low polyreactivity
QVQLVESGGGLVQAGGSLRLSCAASGFIFWYYAMGWSRQAPGKERELVAAISKSGGRTYYADSVKGRFTISRDNAKNTVYLQMNSLKPEDTAVYYCARRAYLSYGYWSDYWGQGTQVTVSS	high polyreactivity
QVQLVESGGGLVQAGGSLRLSCAASGFIFWYYAMGWYRQAPGKERELVAAISSRGGSTYYADSVKGRFTISRDNAKNTVYLQMNSLKPEDTAVYYCNARYVYYGSGNDYWGQGTQVTVSS	high polyreactivity
QVQLVESGGGLVQAGGSLRLSCAASGFIFWYYGMGWYRPAPGKERELVATITSGGSTTYADSVKGRFTISRDNAKNTVYLQMNSLKPEDTAVYYCAADLFYGYYSQADFEYWGQGTQVTVSS	high polyreactivity
QVQLVESGGGLVQAGGSLRLSCAASGFIFYAYAMGWYRQAPGKERELVAAITRSGGSTYYADSVKGRFTISRDNAKNTVYLQMNSLKPEDTAVYYCAARQRTKLGYWGQGTQVTVSS	high polyreactivity
QVQLVESGGGLVQAGGSLRLSCAASGFIFYDYAMGWYRQAPGKERELVAAISKRGGSTYYADSVKGRFTISRDNAKNTVYLQMNSLKPEDTAVYYCAATSYRRTGYNYWGQGTQVTVSS	high polyreactivity
QVQLVESGGGLVQAGGSLRLSCAASGFIFYDYDMGWYRQAPGKERELVAAITYSGGSTYYADSVKGRFTISRDNAKNTVYLQMNSLKPEDTAVYYCAAVKSRYAEAVDYYYWGQGTQVTVSS	low polyreactivity
QVQLVESGGGLVQAGGSLRLSCAASGFIFYGNAMGWYRQAPGKERELVATISDGGSTNYADSVKGRFTISRDNAKNTVYFQMNSLKPEDTAVYYCATEYYTPVRGYGYWGQGTQVTVSS	low polyreactivity
QVQLVESGGGLVQAGGSLRLSCAASGFIFYHYAMGWYRQAPGKERELVAAISWNGGRTYYADSVKGRFTISRDNAKNTVYLQMNSLKPEDTAVYYCAAPVLTSDYTLDSYYWGQGTQVTVSS	high polyreactivity
QVQLVESGGGLVQAGGSLRLSCAASGFIFYKNAMGWYRQAAGKERELVASITRTGDSTNYADSVKGRFTISRDNPKNTVYLQLNSLKPEDTAVYYCAKVLRRWPDPAGGMDYWGQGTQVTVSS	high polyreactivity
QVQLVESGGGLVQAGGSLRLSCAASGFIFYKNAMGWYRQAPGKERELVADISKRGASTYYADSVKGRFTISRDNAKNTVYLQMNSLKPEDTAVYYCAAGYYRASTTVTHGGIEGDSWGQGTQVTVSS	high polyreactivity
QVQLVESGGGLVQAGGSLRLSCAASGFIFYKYAMGWYRQAPGKERELVAAISRRGGNTYYADSVKGRFTISRDNAKNTVYLQMNSLKPEDTAVYYCIAVLYFPYEYWGQGTQVTVSS	high polyreactivity
